The text below walks through data of patent publication US20180187196, “INHIBITORS OF DEK PROTEIN AND RELATED METHODS” (THE REGENTS OF THE UNIVERSITY OF MICHIGAN, published 2018).

In the series the target is T1, DEK (Homo sapiens, UniProt P35659 P35659:1-375).
T1 sequence: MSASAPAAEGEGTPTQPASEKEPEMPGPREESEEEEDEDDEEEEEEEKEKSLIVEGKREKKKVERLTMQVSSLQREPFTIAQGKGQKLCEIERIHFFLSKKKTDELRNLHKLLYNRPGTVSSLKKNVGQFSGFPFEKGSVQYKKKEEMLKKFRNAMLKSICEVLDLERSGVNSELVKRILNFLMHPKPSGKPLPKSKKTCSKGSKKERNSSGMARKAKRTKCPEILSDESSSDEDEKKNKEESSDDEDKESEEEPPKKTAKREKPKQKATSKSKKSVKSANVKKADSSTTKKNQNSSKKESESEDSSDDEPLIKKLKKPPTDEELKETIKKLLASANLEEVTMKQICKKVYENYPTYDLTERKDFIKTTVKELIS
Description: Southwestern blot on denatured DEK with salmon sperm DNA competitor; 300 mM NaCl wash; not quantitated; clones preselected by dot blot filter binding. To be noted: tags: His-tag (pBlueBacHis2A baculovirus, HighFive cells, Ni-NTA purified); label: 5'-32P. On the procedure: After determining the sequences of individual aptamer clones, the corresponding DNA oligonucleotides with and without 5′ and 3′ priming sequences were ordered from IDT (Coralville, Iowa), and radiolabeled with ³²P according to the NEB T4 Kinase kit protocol as above. Binding was then tested using a southwestern blot of purified DEK protein. A conventional western blot was performed using PVDF Immobillon P (EMDMillipore, Darmstadt, Germany). After the transfer, the membrane was soaked in PreHyb buffer [(10 mM Hepes (pH 7.9), 100 ug/mL salmon sperm DNA (Sigma-Aldrich, St. Louis, Mo.), 5% bovine serum albumin (Sigma-Aldrich, St. Louis, Mo.)] for 30 min on the shaker at room temperature to block the membrane. The PreHyb buffer was then removed and 5 mL of Hyb Buffer [(10 mM Hepes (pH 7.9), 50 mM NaCl, 1 mM EDTA, 1 mM DTT, 0.25% BSA, 2 ug/ul salmon sperm DNA, 50 million CPM aptamer)] was added and incubated on the shaker at room temperature for one hour. The Hyb Buffer was removed and the membrane was washed 3× on the shaker at room temperature for 20 min with wash buffer [(10 mM Hepes (pH 7.9), 300 mM NaCl, 1 mM EDTA, 1 mM DTT, 0.25% BSA)]. The membranes were dried and exposed on a Typhoon Phosphor imager (GE Healthcare, Pittsburgh, Pa.) cassette overnight to visualize the radiolabeled DNA bound to the bands corresponding to DEK protein. […] No quantitation was determined.

B1: DEK aptamer 85 (ssDNA)
DNA: ATAGGGAGTCGACCGACCAGAATACCGTGGCATCTGGTTGTAGCATCACGTCTTATGCGGCCGTATGTGCGTCTACATCTAGACT
For B1, the binding result is on record as “binds”.

B2: DEK aptamer 64 (ssDNA)
DNA: ATAGGGAGTCGACCGACCAGAAGGGGTTAAATATTCCCACATTGCCTGCGCCAGTACAAATAGTATGTGCGTCTACATCTAGACT
Consider B2, for which the binding result is listed as “binds”.
